The nanobody polyreactivity screen of Harvey et al. (2022)

Test: yeast display, Sf9 membrane polyspecificity reagent, FACS + sequencing; frameworks hold sequencing errors
Procedure, shortened: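 Sorting gates, low and high (top ~1%), were placed on anti-HA fluorescence to track expression and on streptavidin fluorescence to track reagent binding. A clone's polyreactivity label is taken from the gate it came out of. The reagent was 10% biotinylated, detergent-solubilized Sf9 membrane, applied for 1 hour at 4 °C to galactose-induced yeast display cells.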

Sequence	polyreactivity (PSR sort gate)
QVQLVESGGGLVQAGGSLRLSCAASGFTFRIYAMGWYRQAPGKERELVAAITWSGGSTSYADSVKGRFTISRDNAKNTVYLQMNSLKPEDTAVYYCAAETKYSGAYPYDYWGQGTQVTVSS	high polyreactivity
QVQLVESGGGLVQAGGSLRLSCAASGFTFRKYVMGWYRQAPGKERELVAGISRSGSRTYYADSVKGRFTISRDNAKNTVYLQMNSLKPEDTAVYYCAASRYGKNGKYHYWGQGTQVTVSS	high polyreactivity
QVQLVESGGGLVQAGGSLRLSCAASGFTFRLNAMGWYRQAPGKERELVAAITRSGGNTYYADSVKGRFTISRDNAKNTVYLQMNSLKPEDTAVYYCAVRQLDRRSPKYNYWGQGTQVTVSS	high polyreactivity
QVQLVESGGGLVQAGGSLRLSCAASGFTFRNNAMGWYRQAPGKDRELVAAITARGGSTYYADSVKGRFTISRDNAKNTVYLQMNSLKPEDTAVYYCATDDYPWGRHPWYAGYDSWGQGTQVTVSS	low polyreactivity
QVQLVESGGGLVQAGGSLRLSCAASGFTFRNYAMGWYRKAPGKERELVATIDRGTTSTYYADSVKGRFTISRDNAKNTVYLQMNSLKPEDTAVYYCAARAWRYGYGYWGQGTQVTVSS	high polyreactivity
QVQLVESGGGLVQAGGSLRLSCAASGFTFRQNAKGWYRQAPGKERELVAVITKSAGSTYYADSVKGRFTISRDNAKNTVYLQMNSLKPEDTAVFYCNKRQRFVSSFRRSQGIGWEDDYWGQGTQVTVSS	low polyreactivity
QVQLVESGGGLVQAGGSLRLSCAASGFTFRQNAMGWYRQAPRKERELVAAISSGGRTKYADSVKGRFTISRDNANNTVYLHMNSLKPEDTALYYCAADKRVYTQLNDSWGQGTQVTVSS	high polyreactivity
QVQLVESGGGLVQAGGSLRLSCAASGFTFRRNAMGWYRQAPGKEWEFVAAITGRGTGTYYADSVKGRFTISRDNAKNTVYLQMYILKPEDTAGYYCNDDPVRYLFNRYDYWGQGTQVTVSS	high polyreactivity
QVQLVESGGGLVQAGGSLRLSCAASGFTFRRYAMGRYRQAPGKERELVAAISRSTGSTYYADSVKGRFSLSRDNAKNSVYLQMNSLKPEDTAVFYCNVAGSARVNTLVLSYEYWGQGSQVTVSS	high polyreactivity
QVQLVESGGGLVQAGGSLRLSCAASGFTFRRYVMGWYRQAPGKERELVAAISSGGRTNYADSVKGRFTISRYNAKNTVYLQMNSLKPEDTAVYYCGYLDRYHHLRYWGQGTQVTVSS	high polyreactivity
QVQLVESGGGLVQAGGSLRLSCAASGFTFRSNAMGWSRQAPGKERELVAAISYSGGDTYYADSVKGRFTISRDNAKNTVYLQMNSLKPEDTAVYYCAADDPASPLGEYWGQGTQVSVSS	low polyreactivity
QVQLVESGGGLVQAGGSLRLSCAASGFTFRSYAMGLYRQAPGKEREFVAAINGRSGSTYADSVKGRFTISRDNAKNTVYLQMISLKPEDTAVYYCAARVRRGSTQAQFYYWGQGTQVTVSS	high polyreactivity
QVQLVESGGGLVQAGGSLRLSCAASGFTFRSYTMGWYRQAPGKERELVASIRYGGGSTYYADSVKGRFTISRDNAKNTVYLQMNSLKPEDTAVYYCSAESAWTSPYDYWGQGTQVTVSS	high polyreactivity
QVQLVESGGGLVQAGGSLRLSCAASGFTFRTNAMGWYRQAPGKEREFVATITRRGGSTYYADSVKGRFTISRDNAKKTVYLQLNSLKPEDTAVYYCNAVFSSQEYEYWGQGTQVTVSS	high polyreactivity
QVQLVESGGGLVQAGGSLRLSCAASGFTFRVYAMGWYRQAPGKERELVASITWSGASTYYADSVKGRFTISRDNAKNTVYLQMNSLKPEDTAVYYCAAKYSDYQYGRYYYWGQGTQVTVSS	high polyreactivity
QVQLVESGGGLVQAGGSLRLSCAASGFTFRWYAIGWYSQAPGKEREFVATISTRGGNTYYADSVKGRFTISRDNAKNTVYLQMNSLKPEDTAVYYSAAVGYAAYHRMDYWGQGTQVNVSS	high polyreactivity
QVQLVESGGGLVQAGGSLRLSCAASGFTFRWYDMGWYRQAPGKERELVAAIDASDGSTYYADSVKGRFTISRDNAKNTVYLQMNSLKPEDTAVYYCAADSYYRYYWGQGTQVTVSS	high polyreactivity
QVQLVESGGGLVQAGGSLRLSCAASGFTFRWYDMGWYRQAPGKERELVAAITWRGDNTYYADSVKGRFTISRDNAKNTVYLQMNSLKPEDTAVYYCAAAWPTFISDLSGVDYWGQGTQVTVSS	low polyreactivity
QVQLVESGGGLVQAGGSLRLSCAASGFTFRYNAMGWYRQAPGKERELVAAITNGGSTYADSVKGRFTISRDNAKNTVYLQMNSLKPEDTAVYYCAADYFVLTYYLWSYSPYKSFYYWGQGTQVTLSS	low polyreactivity
QVQLVESGGGLVQAGGSLRLSCAASGFTFRYNAMGWYRQAPGKERELVAAITSDVSTNYADSVKGRFTISRDNAKNTVYLEMNSLKAEDTAVYYCAKGTAKRIVGRSPGNTYEDHYWGQGTEVTVSS	low polyreactivity
QVQLVESGGGLVQAGGSLRLSCAASGFTFRYYAMGWYRQAPGKEREFVAAIRRSGANTYYADSVKGRFTISRDNAKNTVYLQMNSLKPEDTAVYYCGTRLRGSGRLYNYWGQGTQVTVSS	high polyreactivity
QVQLVESGGGLVQAGGSLRLSCAASGFTFRYYAMGWYRQAPGKEREFVAAISWSGGSTYYADSVKGRFTISRDNAKNTVYLQMNSLKPEDTAVYYCNRVPRARKGDYWGQGTQVTVSS	high polyreactivity

Sequence	polyreactivity (PSR sort gate)
QVQLVESGGGLVQAGGSLRLSCAASGFTFRYYAMGWYRQAPGKEREFVAAITRSGGRTYYADSVKGRFTISRDNAKNTVYLQMNSLKPEDTAVYYCAARYVSRFDWGQGTQVTVSS	high polyreactivity
QVQLVESGGGLVQAGGSLRLSCAASGFTFRYYAMGWYRQAPGKERELVAAISWSGASTYYADSVKGRFTISRDNAKNTVYLQMNSLKPEDTAVYYCAADIPGTYYYWGQGTEVTVSS	high polyreactivity
QVQLVESGGGLVQAGGSLRLSCAASGFTFRYYAMGWYRQAPGKERELVAAITRSGGSTSYADSVKGRFTISRDNAKNNVYLQMNSLKPEDTAVYYCNTSTSRVPGNGDYWGQGTQVTVSS	high polyreactivity
QVQLVESGGGLVQAGGSLRLSCAASGFTFRYYAMGWYRQAPGKERELVAAITSGDSTYYADSVKGRFTISRDKAKNTVYLQMNSLKPEDTAVYYCAAYSWLYEGYEYWGQGTQVTVSS	high polyreactivity
QVQLVESGGGLVQAGGSLRLSCAASGFTFRYYAMGWYRQAPGKERELVASISRSGSGTFYADSVKGRFTISRDNAKNTVYLQMNSLKPEDTAVYYCNAVSAAKIPFQKYGYWGQGTQVTVSS	high polyreactivity
QVQLVESGGGLVQAGGSLRLSCAASGFTFRYYAMGWYRQAPGKERELVATISRGGSTNYVDSVKGRFTISRDNAKNTVYLQMNRLKPEDPAVYSCNARYKGWWVSTDSSTDDYWGQGTQVTVSS	high polyreactivity
QVQLVESGGGLVQAGGSLRLSCAASGFTFRYYAMGWYRQAPGKERELVATITTSGGSTYYADSVKGRFTISRDNAKNTVYVQMNSLKPEDTAVYYCAADYYYGRRFRSWRDFNYWGQGTQVTVSS	high polyreactivity
QVQLVESGGGLVQAGGSLRLSCAASGFTFRYYAMGWYSQAPGKERELVAAITRSGGSTYYADSVKGRFTISRDNAKNTVYLQMNSLKPDDTGVYYCAARGHYRDGDEYWGQGTEVTVSS	high polyreactivity
QVQLVESGGGLVQAGGSLRLSCAASGFTFRYYAMVWYRQAPGKERELVAAITSGDSTYYADSVKGLFTISRDNAKNTVYLQMNSLKPEDTAVYYCAAYSWLFEGYEYWGQGTIVTVSS	high polyreactivity
QVQLVESGGGLVQAGGSLRLSCAASGFTFRYYTLGWYRQAPGKERELVAVMRSTGSTNYADSVKGRFTISRDNAKNTVYLQMNSLKAEDTAVYYCNAARGWYNPPKYGSIGFDYWGQGTQVTVSS	high polyreactivity
QVQLVESGGGLVQAGGSLRLSCAASGFTFRYYVMGWSRQAPGKESELVAAICWSGGSTYYADSVKVRFTISRDNAKNTVYLQMNRLKPEDTAFYYCNARRYFRTSQQPLYDYWGQGTQVTVSS	high polyreactivity
QVQLVESGGGLVQAGGSLRLSCAASGFTFSAYAMGWYRQAPGKERELVVAISLSGGSTYYADSVKGRFTISRDNAKNTVYLQMNSLKPEDTAVYYCNADSYWHWGEWLYAPYDYWGQGTQVTVSS	low polyreactivity
QVQLVESGGGLVQAGGSLRLSCAASGFTFSDNAMGWYRQAPGKERELVAASSRSGGRTYYADSVKGRFTISRDNAKNTVYLQMNSLKPEDTAVYYCNARRLSTGFDRYDYWGQGTQVTVSS	high polyreactivity
QVQLVESGGGLVQAGGSLRLSCAASGFTFSDYAMGWYRQAPGKERELVAAISSSGGSTYYADSVKGRFTISRDNAKNTVYLQMNSLKPEDNAVYYCAASSYSFRYRYDTWWYYYWGQGTQVTVSS	high polyreactivity
QVQLVESGGGLVQAGGSLRLSCAASGFTFSFYAMGWYRQAPGKERELVAGISKRGGSTYYADSVKGRFTISRDNAKNTVYLQMNSLKPEDTAVYYCAKRSSLYRSLVDYWGQGTQVTVSS	high polyreactivity
QVQLVESGGGLVQAGGSLRLSCAASGFTFSGYDMGWYRQAPGKERELVAGISSVDHTYYADSVKGRFTISRDNAKNTVYLQMNSLKPEDTAVYYCAATLWPYYYVEYDYWGQGTEVTVSS	low polyreactivity
QVQLVESGGGLVQAGGSLRLSCAASGFTFSHYAMGWYRQAPGKEREVVADISRRGGRTYYADSVKGRFTISRDNAKNTVSLQMNSLKPEDTAVYYCAAPDESYSVWRLDGLDYWGQGTQVTVSS	high polyreactivity
QVQLVESGGGLVQAGGSLRLSCAASGFTFSHYPMGWYRQAPGKERELVASISRRCGTTYYADSVKGRFTISRDNAKNTVYLQMNSLKPEDTAVYYCAVDLYIYYREYDYWGQGTQVTVSS	high polyreactivity
QVQLVESGGGLVQAGGSLRLSCAASGFTFSINAMGWYRKAPGKERELVAGISWSGGITYYADSVKGRFTISRDNAKNTVYLQMNSLKPEDTAVYYCNTDYGLTTPVVWDDYWGQGTQVTVSS	low polyreactivity
QVQLVESGGGLVQAGGSLRLSCAASGFTFSINTMGWYRQAPGKEREFVAGISRSGGSTYYADSVKGRFTISRDNAKNTVYLQMNSLKPEDTAVYYCLKYYQGYDYWGQGTQVTVSS	high polyreactivity
QVQLVESGGGLVQAGGSLRLSCAASGFTFSKNTMGWYRQAPGKERELVAVITRGGGTYYADSVKGRFTISRDNAKNTVYLQMNSLKPEDTAVYYCAVKRNTAYRQAYYLDDYWGQGTQVTVSS	high polyreactivity
